Reference: the DeepSol protein solubility set

Assay: soluble on expression in E. coli; label from the status in PepcDB or PDB records

Sequence	soluble on expression in E. coli
MSTCTLRFKNDWLKIFTCPVPSSDFLSFVGVATIDAPQHAVLSLLYDIESATEWVWKTREMRVLQELADDNEGRVVYQVVSAPWPVSDREIISRSTAYKDPETGEVFIKIESLPDFIPETSNCVRVRKLEGAWNILPLSENSCRVVFRLHIEPAGEIPSWLANIAVIDTPYHTLNNMRDMVKREKYKNPLEHHHHHH	not soluble
MSTDNLLQPKLIEATLGDYPVIQNMARFYVYDMSRYCGFISEEWTCPPDGLYESYDFKIYFTDPERKAFLIQIDNELAGFALLNKFGIQAVDWSMGEFFILAKFQGKGIGQSVAHQLWRTHPGEWEISVIPENIPALSFWRQAVMTYTLGRYKEQIKTVNYDIHQTQRIILSFNTQKQNKSCHSIPKKPITIDFVDNIPKSLEKKMTEDLIAYERTHGIDVNYKRFSIVLSEEGVTCGVINAFTAFAEIYIDDIWVDKAYRGKGYGKKLLQTLENHFKGQGFNNINLCTSAFQAPEFYRKCGYTAEFTRINQANPKLSKTFFVKFFDDENQTQGLF	soluble
MSTDSTNYAAKHESLGKSVQRELQKTQSQLRQVVRKMQSKYNINNKARVAEISLLRQMQSQFSRKYVNKNLGNSNTLAQQGSYTKKDGTTAQAGDLLLAADNLHSRLTDKMLSISHVRENTISPFVLGCLKQITINAYHYLK	not soluble
MSTFRLALIQLQVSSIKSDNLTRACSLVREAAKQGANIVSLPECFNSPYGTTYFPDYAEKIPGESTQKLSEVAKESSIYLIGGSIPEEDAGKLYNTCSVFGPDGSLLVKHRKIHLFDIDVPGKITFQESKTLSPGDSFSTFDTPYCKVGLGICYDMRFAELAQIYAQRGCQLLVYPGAFNLTTGPAHWELLQRARAVDNQVYVATASPARDDKASYVAWGHSTVVDPWGQVLTKAGTEETILYSDIDLKKLAEIRQQIPILKQKRADLYTVESKKP	soluble
MSTFSFIIVNNEQVRIHDIQGKSHMSPYNGKKVNNVEGVVTALDKNGFYIEDNQPDNDPATSEGMYVYKKDANVAVGDLIQVDGVVEEYVGPGYAERFETDLTTTEIKASRVVVIAKDQSLPAPIVLGENGVKIPDQIIDNDAFGLFDPNEDAIDFYESIEGMRVTMPTPKVIAPQKNGNLYVTVKNGGDKIVTQYGTPLLDENQLNPERLSVKVPRDYVAKVGDTFTGDITGVVGYDYGSFRISPITELPAVVDGGFKQVGANIQPRLDKLTVATYNIENFSANKKETTDEKVKALAYSIKYNLKMPDIIGVEEMQDNNGLEHHHHHH	soluble
MSTKTMKEKAVELLQKCEVVTLASVNKEGYPRPVPMSKIAAEGISTIWMSTGADSLKTIDFLSNPKAGLCFQEKGDSVALMGEVEVVTDEKLKQELWQDWFIEHFPGGPTDPGYVLLKFTANHATYWIEGTFIHKKLD	soluble
MSTLQAAAHGRIVQLSRIRKEIADLAKNKRRFIKDFRKIEKCKDIFQFKIIGDGVLYKNMIFTLTLDVNVEYPFKPPYLKFCHNVYHPNVDPVTCELCSPMLLQENWKPETTMEDVLLNLIVLLNEPDLSRPVNIDAAHDYIHNKVEFVKKSTELAKKWN	not soluble
MSTPTLSPSTEKLIPIIGLSVSGTFSPRPIATTAHSVVFKVDSQLYRREVIVKIVDRKSIPANVAEKFFPRELEITMKVRHPHIARCLAITRPAPTKFVIISDYYERGTLLEWILQKKRLKEHPLAATLFRQLIEAINYLHKRGIVHRDVKLENILIDGNGDIKLIDFGFARHIERRERSRSFCGTQPYTCPQITKYRPYEAYAADYYACGIVLFTMVTGKWPNMTENPNIYPEGYPSRSCRKLVSSLLDGNEMSRAGYDECVNSEWMGVHPVWMFANHAYFYEEVRGEDPNSSNCEMSEI	not soluble
MSTRKLNKVMVQPVNLIFRYLQNRTRVQIWLYEDVTHRLEGYIIGFDEFMNVVFDEAEEVNMKTKGRNKIGRILLKGDNITLIHAAQQEA	not soluble
MSTTVGRPSNEIASCQVCHSTERTRLYFGITSCAACAAFFRRSDGIRYMCTATNSCTISHDMKFFCRACRYTSCIRAGMVMSRNALATARKAPNNIIPREPTPRSVPSLEEVDGFSKILNISNGDLLKYYVKEVESIMAQQRYGEQKNALQVKSVNDLMIVTAYQEGTSLESCFNCPGVDILYNEDVEVVHKYFKFSNTWIDSLLAPTSPLDPSCNERISEFIHLLKSTLGSTLAQLNLNIIEYAAFKSFCIWKLVYHKTSISMKIVAQEHYEGVTSALRKYYRKNIKMSELEMATRIGDITLQIITVSNLYNDMARMYHQTGLQL	not soluble
MSVERSLEAWEEVQRHGQDLADRLAQGFNGLIQINPPSFPSKLFDLEFSSQHFGIRDSRFSIHQPINGVSAILDIGNKIGQAGVDFGSGLNVMVQQFFRRLPVPFRHDENVFVSTERDTVTRSHRAYVDTKENSAFSKTDTASSGTVYEEKVTEFDLRTIGLHRRAKGTVELSSSYETRTSSMEHSLAARGDLWRVEASTSNSPVRDDSSSLFLLQLGPLLFLRDSTLLLPVHLSKQHLLWYGYDRKKGMHSLCPALWSKHRRWLMMSMLCLNPLDCSFVDLQFPNGQLTYVSGEGLTTSVFVPLCGGLLQAQGQYPGDMRFSFSCKSKQGTRITPMINWPDKSLALGVSQALAWRRSGVMLKPAIQLSVCSTFGGSNPGIKTEVIQSLNDNINMICGCAFTAHPSTFASVSFGRSKWNGNIGRTGIVVRADTPLPNVARPSFSIQINNAFEF	soluble
MSVKTWRKIAIDIIRDFDHNIMPLFGNPKASETISISPSGDETKVVDKVAENIIISKFKDLGVNVVSEEIGRIDQGSDYTVVVDPLDGSYNFINGIPFFAVSVAIFHEKDPIYAFIYEPIVERLYEGIPGKGSYLNGEKIKVRELAEKPSISFYTKGKGTKIIDKVKRTRTLGAIALELAYLARGALDAVVDIRNYLRPTDIAAGVVIAREAGAIVKDLDGKDVEITFSATEKVNIIAANNEELLETILRSIEK	soluble
MSVLAVQAQRTSIGITAGTGTAWLSDTDRDVVFNPVWNAGATLVYSSETHWGFGADIKYSREGVKFTYAGTGNYNGQTMTTRVGSDFIRIPLRAIYFFNKNENAFRPNVSLGPSFGILTGGEIKTYDGDKNVIGTSKVSDSFRDVDFGLQGTAGASIMLSDGLWFSADIVYYQGLNKQNKNGTNTMLNSNVGINLGLRIGVGR	not soluble
MSVQNGFTAKIIRFVPHFVALRLSWTHNDLKAEGLEQFVEECLPAIRENNPQVKYFLQRSYTTCDPFVVGEYSWLRHRKKRVNWKSKEQVLSMIEEMSIGGDYREGYKRGVNRRLPRGQELWDTETMGHDVFHVTSKWKADIPEEDELPITAKTHPNFTYRKY	not soluble
MSVSPVQPDPSVIGGVPKAPFVLKPNLARLFNDRASRFEALAQGSHLAPYLNFLAGITRIQSELVSALPPPEPVPADRVERARANAMPPIDRAAMGGSPDCREVLQQFFEKAEALEKPAAAAEALAQVRTADEEMLTWMIGNVMADDLPVESLAHHLYVAAAMQIQAARLAAGLDGSRLVPIRVGVCPACGGRPVASMVIGFHGAEGARYASCSCCATMWNEVRVKCLACGSTKGIGYQAVETGDEEATVKAEVCDTCNSWMKILYQNKNPSLDVVADDVASLGLDLLMKDTEYKRAGFDPFLMGY	not soluble
MSVTVFIPGDSAALAVGANRVAEAIAREAASRNLDVQIVRNGSRGMLWLEVLVEVRTEHGRIAYGPVKAADVTSLFDADFLDGGDHRLCLGPTKDIPFLKNQTRLTFARCGVTDPLSLEDYRNYQGMKGLEKAVTMEPLAIVAQVTESGLRGRGGAGFPTGIKWKTVADARADQKYIVCNADEGDSGTFADRMIMEGDPFVLIEGMAIAGLAVGATKGFIYTRSEYPYAIKVMEKAIEIARREGILGSSVLGSGRAFDMEVRMGAGAYVCGEETSLLNSLEGKRGTVRAKPPLPALQGLFGKPTVVNNVISLASIPVIMDRGAAFYRDFGVGRSHGTIPIQLAGNIRYGGLYETAFGLTLGQLVNDIGGGTITGRPVKAVQVGGPLGAYFPVSLFDTIFDYEAFTAAGGLIGHAGIVVFDDTADMLHQARFALEFCAVESCGKCTPCRIGSTRGVETVDKIALGIEREKNTALLEDLCETMKFGSLCALGGFTPYPVMSALRHFPQDFAPIPRVEAAEAAALEHHHHHH	not soluble
